For this series, the system named is Escherichia coli TOP10. Put plainly: shrunken log2 fold change of peptide-encoding DNA abundance (4.5 h post-induction vs induction); higher = less antimicrobial activity (less host growth inhibition). Conditions: time post-induction: 4.5 h; library: site-saturation at positions 5, 18, 19, 20.
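Note: peptides expressed intracellularly from a pBAD plasmid library in pooled LB shake-flask culture, induced with 0.3% L-arabinose, DNA abundance read by NGS, three biological replicates, DESeq2 with apeglm shrinkage.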

Consider RRIRRRPPRLPRPRPRPSICPRP, for which the “shrunken log2 fold change” value is 0.00217. Consider RRIRGRPPRLPRPRPRPRDPPRP, for which the “shrunken log2 fold change” value was determined as 1.32. In the case of RRIRMRPPRLPRPRPRPAVTPRP, the “shrunken log2 fold change” value turned out to be 0.177. As for RRIRMRPPRLPRPRPRPSDMPRP, the “shrunken log2 fold change” value stood at 0.0637. To RRIRARPPRLPRPRPRPHSGPRP belongs -0.0576; to RRIRHRPPRLPRPRPRPRKIPRP, 0.051; to RRIRTRPPRLPRPRPRPSKRPRP, -0.325. On to RRIRMRPPRLPRPRPRPAPAPRP, for which the “shrunken log2 fold change” value worked out at 1.53.

RRIRKRPPRLPRPRPRPKHLPRP: the “shrunken log2 fold change” value is -0.334. Take RRIRLRPPRLPRPRPRPTLDPRP: the “shrunken log2 fold change” value was determined as 0.0159. Take RRIRWRPPRLPRPRPRPAETPRP: the “shrunken log2 fold change” value came to 0.0775.

Take RRIRHRPPRLPRPRPRPVHPPRP: the “shrunken log2 fold change” value is -0.131. RRIRNRPPRLPRPRPRPMKMPRP: the “shrunken log2 fold change” value was 0.064. Regarding RRIRRRPPRLPRPRPRPVFYPRP, the “shrunken log2 fold change” value was -0.0199. To RRIRERPPRLPRPRPRPCFHPRP belongs -0.327.

Turning to RRIRHRPPRLPRPRPRPEHIPRP, the “shrunken log2 fold change” value was -0.142. For the sequence RRIRGRPPRLPRPRPRPGQIPRP, the “shrunken log2 fold change” value was 0.352.

Consider RRIRHRPPRLPRPRPRPMIWPRP, for which the “shrunken log2 fold change” value is -0.00298. RRIRWRPPRLPRPRPRPIVWPRP: the “shrunken log2 fold change” value was -0.0161. As for RRIRHRPPRLPRPRPRPGKFPRP, the “shrunken log2 fold change” value was -0.175. On to RRIRMRPPRLPRPRPRPPTAPRP, for which the “shrunken log2 fold change” value worked out at 1.03. On to RRIRLRPPRLPRPRPRPFHMPRP, for which the “shrunken log2 fold change” value was -0.16. For RRIRGRPPRLPRPRPRPGWKPRP, the “shrunken log2 fold change” value is 0.0657. In the case of RRIRYRPPRLPRPRPRPKVFPRP, the “shrunken log2 fold change” value worked out at 0.149. As to RRIRSRPPRLPRPRPRPMPKPRP, the “shrunken log2 fold change” value was 0.0763. On to RRIRWRPPRLPRPRPRPWVNPRP, for which the “shrunken log2 fold change” value is -0.183. To RRIRNRPPRLPRPRPRPYYPPRP belongs -0.141; to RRIRHRPPRLPRPRPRPSQDPRP, -0.032; to RRIRIRPPRLPRPRPRPPTEPRP, -0.323.

With RRIRVRPPRLPRPRPRPSNWPRP, the “shrunken log2 fold change” value is -0.331. Turning to RRIRMRPPRLPRPRPRPCTFPRP, the “shrunken log2 fold change” value was -0.209. To RRIRVRPPRLPRPRPRPLALPRP belongs -0.181; to RRIRQRPPRLPRPRPRPCFCPRP, -0.0837. To RRIRPRPPRLPRPRPRPEHEPRP belongs 0.0185. Consider RRIRMRPPRLPRPRPRPVCFPRP, for which the “shrunken log2 fold change” value came to 0.126. To RRIRPRPPRLPRPRPRPNCGPRP belongs -0.0429. As to RRIRSRPPRLPRPRPRPFKYPRP, the “shrunken log2 fold change” value was -0.418. Regarding RRIRSRPPRLPRPRPRPIIMPRP, the “shrunken log2 fold change” value was -0.35.

Consider RRIRQRPPRLPRPRPRPLPCPRP, for which the “shrunken log2 fold change” value was -0.00831. To RRIRWRPPRLPRPRPRPLSAPRP belongs 0.553. For RRIRRRPPRLPRPRPRPDEIPRP, the “shrunken log2 fold change” value came to 0.116. For the sequence RRIRQRPPRLPRPRPRPSTPPRP, the “shrunken log2 fold change” value was -0.311. As for RRIRQRPPRLPRPRPRPEVSPRP, the “shrunken log2 fold change” value came to 0.116. As for RRIRMRPPRLPRPRPRPFIIPRP, the “shrunken log2 fold change” value is -0.268. For RRIRYRPPRLPRPRPRPMHKPRP, the “shrunken log2 fold change” value was -0.454.

On to RRIRIRPPRLPRPRPRPDDQPRP, for which the “shrunken log2 fold change” value came out at 0.0121. For RRIRQRPPRLPRPRPRPGRCPRP, the “shrunken log2 fold change” value stood at 0.321. As for RRIRGRPPRLPRPRPRPKMQPRP, the “shrunken log2 fold change” value was 0.292.

Turning to RRIRRRPPRLPRPRPRPWKDPRP, the “shrunken log2 fold change” value was -0.0442. To RRIRGRPPRLPRPRPRPDQSPRP belongs 0.777.
